In patent CN115925884A (SUN YAT SEN UNIV CANCER CENTER SUN YAT SEN UNIV AFFILIATED …, dated 2023):

Target: T1, EBV gB重组蛋白 (recombinant EB virus gB protein with C-terminal 6xHis tag) (EB病毒 (Epstein-Barr virus), UniProt P0C762 23-683, biotin label in the BLI assay (gB-Biotin), site not stated)
T1 construct: Biotinylated for BLI; unlabelled in the Western blot; also called gB蛋白; gB抗原
T1 chain: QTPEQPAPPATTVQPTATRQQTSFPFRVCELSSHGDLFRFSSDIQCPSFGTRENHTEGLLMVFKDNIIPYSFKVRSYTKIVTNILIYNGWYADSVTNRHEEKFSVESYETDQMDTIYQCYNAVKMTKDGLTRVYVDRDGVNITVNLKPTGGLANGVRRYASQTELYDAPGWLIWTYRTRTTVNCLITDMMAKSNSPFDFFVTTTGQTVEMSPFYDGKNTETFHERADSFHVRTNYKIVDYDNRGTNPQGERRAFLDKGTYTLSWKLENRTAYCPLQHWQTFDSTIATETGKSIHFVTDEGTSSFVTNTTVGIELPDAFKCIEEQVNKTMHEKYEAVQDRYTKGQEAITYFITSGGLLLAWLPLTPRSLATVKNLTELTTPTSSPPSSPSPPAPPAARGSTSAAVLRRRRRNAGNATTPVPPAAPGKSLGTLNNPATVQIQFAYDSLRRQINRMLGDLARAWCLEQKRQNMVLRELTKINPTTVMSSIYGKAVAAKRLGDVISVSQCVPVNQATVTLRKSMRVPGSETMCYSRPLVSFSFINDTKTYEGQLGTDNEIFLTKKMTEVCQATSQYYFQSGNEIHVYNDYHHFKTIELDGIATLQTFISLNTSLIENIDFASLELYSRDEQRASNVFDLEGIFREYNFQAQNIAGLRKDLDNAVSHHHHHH
Assay: BLI, biotinylated gB on SA biosensor, 0-200 nM antibody in solution

B1: 4F10抗体 (monoclonal antibody against EB virus gB antigen) (antibody, V domains shown)
VH: QITLKESGAEMKKPGSSVKVSCKSSDTFKSYGIGWVRQAPGQGLEWMGGVIPVTGTRSYPQKFQGRVTITADESTSTAYMELSRLRSEDTAVYYCGRYMSYLYGMDVWGQGTTVTVSS
VL: DIVLTQTPLSSPVTLGQPASISCRSSQGLVYSDGDTYLNWFQQRPGQSPRRLIYKVSNRDSGVPDRFSGSGSGTDFTLRISRVEAEDVGVYYCMQGAHWPPTFGQGTKLEIK
notes: For flow cytometry the antibody carried a '403' fluorescent label; also called 抗体4F10
**Q.** For B1, which Kd is on record?
**A.** 1 pM
